The values below come from patent US20200087373A1 (UNIVERSITY OF COPENHAGEN, published 2020).

For orientation: IC50 means the concentration that gives 50% inhibition. Low readings indicate higher potency, high ones lower potency.

The target of assay [1] is T1, human GIP receptor (human, UniProt P48546 22-466).
T1 construct: whole, on cells; also called hGIPR
T1 sequence (looked up): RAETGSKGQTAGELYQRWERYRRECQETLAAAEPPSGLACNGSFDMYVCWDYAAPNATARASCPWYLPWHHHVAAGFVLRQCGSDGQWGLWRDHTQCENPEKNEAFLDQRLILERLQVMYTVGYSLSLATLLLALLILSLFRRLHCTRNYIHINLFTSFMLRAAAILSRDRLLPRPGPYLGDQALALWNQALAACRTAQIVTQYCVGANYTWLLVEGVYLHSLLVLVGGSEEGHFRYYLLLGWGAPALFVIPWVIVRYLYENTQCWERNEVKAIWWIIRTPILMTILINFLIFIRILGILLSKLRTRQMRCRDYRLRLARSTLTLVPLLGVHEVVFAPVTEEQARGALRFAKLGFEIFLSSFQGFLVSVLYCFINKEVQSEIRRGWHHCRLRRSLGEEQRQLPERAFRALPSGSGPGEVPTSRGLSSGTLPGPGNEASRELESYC
Description: 125I-hGIP competition binding, COS-7/hGIPR, 2% HSA.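 Note: nonspecific binding defined as radioligand binding to untransfected cells.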
Description: (§1) After incubation, the cells were washed twice in ice-cold binding buffer (+/−2% HSA) and lysed using 200 mM NaOH with 1% SDS for 30 min. Nonspecific binding was determined as the binding of radioactive ligand to untransfected cells.

Assay [2] addresses T1, human GIP receptor. Description: 125I-hGIP competition binding, COS-7/hGIPR, 0.1% casein.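 Note: nonspecific binding defined as radioligand binding measured on untransfected cells.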
Description: as §1
In assay [3] the target is T1, human GIP receptor. As to the kind of experiment: 125I-hGIP competition binding, COS-7 cells expressing hGIPR.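 Note: nonspecific binding taken as radioligand bound by untransfected cells, binding buffer with or without 2% HSA.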
Description: as §1
For assay [4], the target named is T1, human GIP receptor. Description: IC50 with 2% HSA over IC50 with 0.1% casein, 125I-hGIP competition, COS-7/hGIPR.
Description: as §1

Ends that are not written are not given here. * marks the point of attachment. C18 diacid = O=C(O)CCCCCCCCCCCCCCCCC(=O)*; C16 diacid = O=C(O)CCCCCCCCCCCCCCC(=O)*; C14 diacid = O=C(O)CCCCCCCCCCCCC(=O)*; Stearoyl = CCCCCCCCCCCCCCCCCC(=O)*; Myristoyl = CCCCCCCCCCCCCC(=O)*

B1: AT137 [hGIP(5-30)NH2-C16diacid/5] (peptide)
peptide: {C16 diacid}-TFISDYSIAMDKIHQQDFVNWLLAQK-NH2
SMILES: CC[C@H](C)[C@H](NC(=O)[C@H](CO)NC(=O)[C@H](Cc1ccc(O)cc1)NC(=O)[C@H](CC(=O)O)NC(=O)[C@H](CO)NC(=O)[C@@H](NC(=O)[C@H](Cc1ccccc1)NC(=O)[C@@H](NC(=O)CCCCCCCCCCCCCCC(=O)O)[C@@H](C)O)[C@@H](C)CC)C(=O)N[C@@H](C)C(=O)N[C@@H](CCSC)C(=O)N[C@@H](CC(=O)O)C(=O)N[C@@H](CCCCN)C(=O)N[C@H](C(=O)N[C@@H](Cc1c[nH]cn1)C(=O)N[C@@H](CCC(N)=O)C(=O)N[C@@H](CCC(N)=O)C(=O)N[C@@H](CC(=O)O)C(=O)N[C@@H](Cc1ccccc1)C(=O)N[C@H](C(=O)N[C@@H](CC(N)=O)C(=O)N[C@@H](Cc1c[nH]c2ccccc12)C(=O)N[C@@H](CC(C)C)C(=O)N[C@@H](CC(C)C)C(=O)N[C@@H](C)C(=O)N[C@@H](CCC(N)=O)C(=O)N[C@@H](CCCCN)C(N)=O)C(C)C)[C@@H](C)CC
B1: in assay [1], the IC50 came to 555 nM and the logIC50 was -6.3 log M. In assay [2], this molecule registered an IC50 of 286 nM and a logIC50 of -6.5 log M. Also, in assay [3], the IC50 stood at 286 nM and the “log IC50” value is -6.5 log M. Besides, the “Fold change HSA (2%)/Casein (0.1%)” value in assay [4] amounted to 1.9 fold.

B2: AT111 [hGIP(3-30)NH2-C14/16] (peptide)
peptide: EGTFISDYSIAMDK(Myristoyl)IHQQDFVNWLLAQK-NH2
As for B2, the IC50 worked out at 2090 nM in assay [1], 407 nM in assay [2] and 261 nM in assay [3]. The logIC50 in assay [1] is -5.7 log M; in assay [2], -6.4 log M. Besides, the “log IC50” value in assay [3] was -6.6 log M. Moreover, the “Fold change HSA (2%)/Casein (0.1%)” value in assay [4] was found to be 5.1 fold.

B3: AT141 [hGIP(5-30)NH2-C18diacid/16] (peptide)
peptide: TFISDYSIAMDK(C18 diacid)IHQQDFVNWLLAQK-NH2
modifications: N-terminus assumed
SMILES: CC[C@H](C)[C@H](NC(=O)[C@H](CO)NC(=O)[C@H](Cc1ccc(O)cc1)NC(=O)[C@H](CC(=O)O)NC(=O)[C@H](CO)NC(=O)[C@@H](NC(=O)[C@H](Cc1ccccc1)NC(=O)[C@@H](N)[C@@H](C)O)[C@@H](C)CC)C(=O)N[C@@H](C)C(=O)N[C@@H](CCSC)C(=O)N[C@@H](CC(=O)O)C(=O)N[C@@H](CCCCNC(=O)CCCCCCCCCCCCCCCCC(=O)O)C(=O)N[C@H](C(=O)N[C@@H](Cc1c[nH]cn1)C(=O)N[C@@H](CCC(N)=O)C(=O)N[C@@H](CCC(N)=O)C(=O)N[C@@H](CC(=O)O)C(=O)N[C@@H](Cc1ccccc1)C(=O)N[C@H](C(=O)N[C@@H](CC(N)=O)C(=O)N[C@@H](Cc1c[nH]c2ccccc12)C(=O)N[C@@H](CC(C)C)C(=O)N[C@@H](CC(C)C)C(=O)N[C@@H](C)C(=O)N[C@@H](CCC(N)=O)C(=O)N[C@@H](CCCCN)C(N)=O)C(C)C)[C@@H](C)CC
On to B3, for which the figures for the IC50 in assay [1], in assay [2] and in assay [3] were 12400 nM, 1900 nM and 1900 nM, respectively. Also, the results for the logIC50 in assay [1] and in assay [2] were -4.9 log M and -5.7 log M, respectively. Moreover, the “log IC50” value in assay [3] was -5.7 log M. For the same molecule, in assay [4], the “Fold change HSA (2%)/Casein (0.1%)” value came to 6.5 fold.

B4: AT138 [hGIP(5-30)NH2-C18diacid/5] (peptide)
peptide: {C18 diacid}-TFISDYSIAMDKIHQQDFVNWLLAQK-NH2
SMILES: CC[C@H](C)[C@H](NC(=O)[C@H](CO)NC(=O)[C@H](Cc1ccc(O)cc1)NC(=O)[C@H](CC(=O)O)NC(=O)[C@H](CO)NC(=O)[C@@H](NC(=O)[C@H](Cc1ccccc1)NC(=O)[C@@H](NC(=O)CCCCCCCCCCCCCCCCC(=O)O)[C@@H](C)O)[C@@H](C)CC)C(=O)N[C@@H](C)C(=O)N[C@@H](CCSC)C(=O)N[C@@H](CC(=O)O)C(=O)N[C@@H](CCCCN)C(=O)N[C@H](C(=O)N[C@@H](Cc1c[nH]cn1)C(=O)N[C@@H](CCC(N)=O)C(=O)N[C@@H](CCC(N)=O)C(=O)N[C@@H](CC(=O)O)C(=O)N[C@@H](Cc1ccccc1)C(=O)N[C@H](C(=O)N[C@@H](CC(N)=O)C(=O)N[C@@H](Cc1c[nH]c2ccccc12)C(=O)N[C@@H](CC(C)C)C(=O)N[C@@H](CC(C)C)C(=O)N[C@@H](C)C(=O)N[C@@H](CCC(N)=O)C(=O)N[C@@H](CCCCN)C(N)=O)C(C)C)[C@@H](C)CC
On to B4, for which the IC50 in assay [1] is 10100 nM; in assay [2] it was 2640 nM; in assay [3], 2640 nM. Moreover, the logIC50 was -5 log M in assay [1] and -5.6 log M in assay [2]. Moreover, the “log IC50” value in assay [3] is -5.6 log M. For the same molecule, the “Fold change HSA (2%)/Casein (0.1%)” value in assay [4] stood at 3.8 fold.

B5: AT114 [hGIP(3-30)NH2-C18/16] (peptide)
peptide: EGTFISDYSIAMDK(Stearoyl)IHQQDFVNWLLAQK-NH2
In assay [1], B5 came in with an IC50 of 5460 nM and a logIC50 of -5.3 log M. Besides, in assay [2], the IC50 was 489 nM and the logIC50 was -6.3 log M. Besides, in assay [3], the IC50 came to 622 nM and the “log IC50” value was -6.2 log M. Moreover, the “Fold change HSA (2%)/Casein (0.1%)” value in assay [4] turned out to be 11.2 fold.

B6: AT140 [hGIP(5-30)NH2-C16diacid/16] (peptide)
peptide: TFISDYSIAMDK(C16 diacid)IHQQDFVNWLLAQK-NH2
modifications: N-terminus assumed
SMILES: CC[C@H](C)[C@H](NC(=O)[C@H](CO)NC(=O)[C@H](Cc1ccc(O)cc1)NC(=O)[C@H](CC(=O)O)NC(=O)[C@H](CO)NC(=O)[C@@H](NC(=O)[C@H](Cc1ccccc1)NC(=O)[C@@H](N)[C@@H](C)O)[C@@H](C)CC)C(=O)N[C@@H](C)C(=O)N[C@@H](CCSC)C(=O)N[C@@H](CC(=O)O)C(=O)N[C@@H](CCCCNC(=O)CCCCCCCCCCCCCCC(=O)O)C(=O)N[C@H](C(=O)N[C@@H](Cc1c[nH]cn1)C(=O)N[C@@H](CCC(N)=O)C(=O)N[C@@H](CCC(N)=O)C(=O)N[C@@H](CC(=O)O)C(=O)N[C@@H](Cc1ccccc1)C(=O)N[C@H](C(=O)N[C@@H](CC(N)=O)C(=O)N[C@@H](Cc1c[nH]c2ccccc12)C(=O)N[C@@H](CC(C)C)C(=O)N[C@@H](CC(C)C)C(=O)N[C@@H](C)C(=O)N[C@@H](CCC(N)=O)C(=O)N[C@@H](CCCCN)C(N)=O)C(C)C)[C@@H](C)CC
For B6, in assay [1], the IC50 was determined as 3280 nM and the logIC50 is -5.5 log M. Also, in assay [2], the IC50 was 2160 nM and the logIC50 was -5.7 log M. Besides, in assay [3], the IC50 came to 2160 nM and the “log IC50” value is -5.7 log M. Moreover, the “Fold change HSA (2%)/Casein (0.1%)” value in assay [4] was found to be 1.5 fold.

B7: AT139 [hGIP(5-30)NH2-C14diacid/16] (peptide)
peptide: TFISDYSIAMDK(C14 diacid)IHQQDFVNWLLAQK-NH2
modifications: N-terminus assumed
SMILES: CC[C@H](C)[C@H](NC(=O)[C@H](CO)NC(=O)[C@H](Cc1ccc(O)cc1)NC(=O)[C@H](CC(=O)O)NC(=O)[C@H](CO)NC(=O)[C@@H](NC(=O)[C@H](Cc1ccccc1)NC(=O)[C@@H](N)[C@@H](C)O)[C@@H](C)CC)C(=O)N[C@@H](C)C(=O)N[C@@H](CCSC)C(=O)N[C@@H](CC(=O)O)C(=O)N[C@@H](CCCCNC(=O)CCCCCCCCCCCCC(=O)O)C(=O)N[C@H](C(=O)N[C@@H](Cc1c[nH]cn1)C(=O)N[C@@H](CCC(N)=O)C(=O)N[C@@H](CCC(N)=O)C(=O)N[C@@H](CC(=O)O)C(=O)N[C@@H](Cc1ccccc1)C(=O)N[C@H](C(=O)N[C@@H](CC(N)=O)C(=O)N[C@@H](Cc1c[nH]c2ccccc12)C(=O)N[C@@H](CC(C)C)C(=O)N[C@@H](CC(C)C)C(=O)N[C@@H](C)C(=O)N[C@@H](CCC(N)=O)C(=O)N[C@@H](CCCCN)C(N)=O)C(C)C)[C@@H](C)CC
As to B7, in assay [1], the IC50 was 401 nM and the logIC50 is -6.4 log M. In assay [2], this molecule displayed an IC50 of 153 nM and a logIC50 of -6.8 log M. Further, in assay [3], the IC50 amounted to 153 nM and the “log IC50” value was -6.8 log M. The “Fold change HSA (2%)/Casein (0.1%)” value in assay [4] turned out to be 2.6 fold.

B8: AT136 [hGIP(5-30)NH2-C14diacid/5] (peptide)
peptide: {C14 diacid}-TFISDYSIAMDKIHQQDFVNWLLAQK-NH2
SMILES: CC[C@H](C)[C@H](NC(=O)[C@H](CO)NC(=O)[C@H](Cc1ccc(O)cc1)NC(=O)[C@H](CC(=O)O)NC(=O)[C@H](CO)NC(=O)[C@@H](NC(=O)[C@H](Cc1ccccc1)NC(=O)[C@@H](NC(=O)CCCCCCCCCCCCC(=O)O)[C@@H](C)O)[C@@H](C)CC)C(=O)N[C@@H](C)C(=O)N[C@@H](CCSC)C(=O)N[C@@H](CC(=O)O)C(=O)N[C@@H](CCCCN)C(=O)N[C@H](C(=O)N[C@@H](Cc1c[nH]cn1)C(=O)N[C@@H](CCC(N)=O)C(=O)N[C@@H](CCC(N)=O)C(=O)N[C@@H](CC(=O)O)C(=O)N[C@@H](Cc1ccccc1)C(=O)N[C@H](C(=O)N[C@@H](CC(N)=O)C(=O)N[C@@H](Cc1c[nH]c2ccccc12)C(=O)N[C@@H](CC(C)C)C(=O)N[C@@H](CC(C)C)C(=O)N[C@@H](C)C(=O)N[C@@H](CCC(N)=O)C(=O)N[C@@H](CCCCN)C(N)=O)C(C)C)[C@@H](C)CC
On to B8, for which, in assay [1], the IC50 was determined as 713 nM and the logIC50 is -6.1 log M. Moreover, in assay [2], the IC50 came out at 45 nM and the logIC50 is -7.3 log M. In assay [3], the IC50 came out at 45.4 nM and the “log IC50” value was -7.3 log M. In addition, the “Fold change HSA (2%)/Casein (0.1%)” value in assay [4] turned out to be 15.7 fold.
